This passage reports Kd results from patent US20250230239A1.

The test has as its target recombinant his-tagged and biotinylated CD3ε protein (AcroBiosystems, CDE-H8223), human (human) (UniProt P07766). Nature of the test: BLI (Octet RED96), biotinylated his-tagged CD3ε on SSA biosensor, bispecific as analyte 200 to 3.125 nM.

Sequence of recombinant his-tagged and biotinylated CD3ε protein (AcroBiosystems, CDE-H8223), human (human) (P07766 23-126 limits assumed): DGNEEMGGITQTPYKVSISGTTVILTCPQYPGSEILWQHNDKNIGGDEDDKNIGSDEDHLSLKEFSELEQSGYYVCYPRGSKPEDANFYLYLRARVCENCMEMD

B1: monovalent bispecific antibody comprising anti-CD3 scFv v619_HLh (SEQ ID NO: 28) and a Her2-binding domain (bispecific antibody, part only; not given: Her2 arm and Fc, not shown: another chain or arm of the molecule; a dimerising Fc or GST; small tags and cut ends)
scFv: EVQLVESGGGLVQPGGSLKLSCAASGFTFSTYAMNWVRQASGKGLEWVGRIRSKYNNYATYYADSVKDRFTISRDDSKNTAYLQMNSLKTEDTAVYYCVRHGNFGNSYVSWWAYWGQGTLVTVSSGGGGSGGGGSGGGGSQTVVTQEPSLTVSPGGTVTLTCGSSTGAVTTSNYVNWVQQKPGQAPRGLIGGTNKRAPGTPARFSGSLIGGKAALTLSGAQPEDEAEYYCVLWYSNRWVFGGGTKLTVL
Consider B1, for which the Kd is 1.66 to 5.64 nM.

B2: monovalent bispecific antibody comprising anti-CD3 scFv v619-HLh-CC4 (SEQ ID NO: 32) and a Her2-binding domain (bispecific antibody, part only; not given: Her2 arm and Fc, not shown: another chain or arm of the molecule; a dimerising Fc or GST; small tags and cut ends)
scFv: EVQLVESGGGLVQPGGSLKLSCAASGFTFSTYAMNWVRQASGKGLEWVGRIRSKYNNYATYYADSVKDRFTISRDDSKNTAYLQMNSLKTEDTAVYYCVRHGNFGNSYVSWFAYWGCGTLVTVSSGGGGSGGGGSGGGGSQTVVTQEPSLTVSPGGTVTLTCGSSTGAVTTSNYVNWVQQKPGCAPRGLIGGTNKRAPGTPARFSGSLIGGKAALTLSGAQPEDEAEYYCVLWYSNRWVFGGGTKLTVL
modifications: Engineered VH-VL disulfide (Cys at VH 117 and VL 44 of the domains) within the scFv
With B2, the dissociation constant (Kd) amounted to 11 nM.

As usually defined, the Kd is the free concentration of one partner at which half of the binding sites on the other are occupied at equilibrium, for simple one-to-one binding.
